{"source": "patent US20260008822A1", "about": "(RECOURSE BIOLOGICS, published 2026)", "binders": {"B1": {"name": "human NKG2D (receptor, UniProt P26718 78-216, looked up)", "chain": "FLNSLFNQEVQIPLTESYCGPCPKNWICYKNNCYQFFDESKNWYESQASCMSQNASLLKVYSKEDQDLLKLVKSYHWMGLVHIPTNGSWQWEDGSILSPNLLTIIEMQKGDCALYASSFKGYIENCSTPNTYICMQRTV"}}, "target": "T1, E0 (EGFR-OMCP bispecific fusion protein: cetuximab scFv - (GGGGS)3 linker - OMCP - His8 tag)", "T1 construct": "also called OMCP-EGFR; OMCP-EGFR scFv", "test": "SPR (ProteOn XPR36), human NKG2D amine-coupled to the chip, bispecific as analyte, 1:1 Langmuir fit"}
{"binder": "B1", "values": [{"measurement": "Kd", "result": 0.17, "unit": "nM"}]}
